Measured values reported in the supplement of paper PMC10567573.

B1: RIT1 (parent)
chain: FHALVREIRRKEKEAVLAMEKKSK

Variants of: B1
Assay: protein stability index of a GFP-peptide fusion (GPS, HEK-293T) (PSI 1-6); higher = more stable
Conditions: c terminus: a fixed tail appended
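Further: lentivirally expressed fusions sorted by FACS into six bins by GFP to DsRed ratio, PSI derived from sequencing read proportions per bin multiplied by bin number.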

Q: Which protein stability index does the source give for FHALVRCIRRKEKEAVLAMEKKSK [E7C] here?
A: 2.16

Q: Which protein stability index does the source give for FHALVRDIRRKEKEAVLAMEKKSK [E7D] here?
A: 1.8

Q: For FHALVRFIRRKEKEAVLAMEKKSK [E7F], which protein stability index is on record?
A: 1.82

Q: Which protein stability index does the source give for FHALVRGIRRKEKEAVLAMEKKSK [E7G] here?
A: 1.62

Q: For FHALVRHIRRKEKEAVLAMEKKSK [E7H], which protein stability index is on record?
A: 1.97

Q: Which protein stability index does the source give for FHALVRIIRRKEKEAVLAMEKKSK [E7I] here?
A: 2.24

Q: Which protein stability index does the source give for FHALVRKIRRKEKEAVLAMEKKSK [E7K] here?
A: 1.36

Q: Which protein stability index does the source give for FHALVRLIRRKEKEAVLAMEKKSK [E7L] here?
A: 4.8

Q: Which protein stability index does the source give for FHALVRMIRRKEKEAVLAMEKKSK [E7M] here?
A: 2.82

Q: For FHALVRNIRRKEKEAVLAMEKKSK [E7N], which protein stability index is on record?
A: 2.44

Q: For FHALVRPIRRKEKEAVLAMEKKSK [E7P], which protein stability index is on record?
A: 2.58

Q: For FHALVRQIRRKEKEAVLAMEKKSK [E7Q], which protein stability index is on record?
A: 1.32

Q: With FHALVRRIRRKEKEAVLAMEKKSK [E7R] as the variant, how does the protein stability index read?
A: 1.87

Q: Which protein stability index does the source give for FHALVRSIRRKEKEAVLAMEKKSK [E7S] here?
A: 2.44

Q: For FHALVRTIRRKEKEAVLAMEKKSK [E7T], which protein stability index is on record?
A: 1.5

Q: Which protein stability index does the source give for FHALVRVIRRKEKEAVLAMEKKSK [E7V] here?
A: 3.23

Q: With FHALVRWIRRKEKEAVLAMEKKSK [E7W] as the variant, how does the protein stability index read?
A: 1.59

Q: For FHALVRYIRRKEKEAVLAMEKKSK [E7Y], which protein stability index is on record?
A: 2.04

Q: Which protein stability index does the source give for FHALVREARRKEKEAVLAMEKKSK [I8A] here?
A: 2.93

Q: With FHALVRECRRKEKEAVLAMEKKSK [I8C] as the variant, how does the protein stability index read?
A: 2.25

Q: For FHALVREDRRKEKEAVLAMEKKSK [I8D], which protein stability index is on record?
A: 3.15

Q: For FHALVREERRKEKEAVLAMEKKSK [I8E], which protein stability index is on record?
A: 2.87

Q: Which protein stability index does the source give for FHALVREFRRKEKEAVLAMEKKSK [I8F] here?
A: 2.34

Q: Which protein stability index does the source give for FHALVREGRRKEKEAVLAMEKKSK [I8G] here?
A: 2.23

Q: Which protein stability index does the source give for FHALVREHRRKEKEAVLAMEKKSK [I8H] here?
A: 2.14

Q: Which protein stability index does the source give for FHALVREKRRKEKEAVLAMEKKSK [I8K] here?
A: 2.31

Q: For FHALVRELRRKEKEAVLAMEKKSK [I8L], which protein stability index is on record?
A: 1.65

Q: With FHALVREMRRKEKEAVLAMEKKSK [I8M] as the variant, how does the protein stability index read?
A: 2.32

Q: With FHALVRENRRKEKEAVLAMEKKSK [I8N] as the variant, how does the protein stability index read?
A: 2.77

Q: With FHALVREPRRKEKEAVLAMEKKSK [I8P] as the variant, how does the protein stability index read?
A: 2.28

Q: Which protein stability index does the source give for FHALVREQRRKEKEAVLAMEKKSK [I8Q] here?
A: 2.47

Q: For FHALVRERRRKEKEAVLAMEKKSK [I8R], which protein stability index is on record?
A: 2.32

Q: Which protein stability index does the source give for FHALVRESRRKEKEAVLAMEKKSK [I8S] here?
A: 3.08

Q: Which protein stability index does the source give for FHALVRETRRKEKEAVLAMEKKSK [I8T] here?
A: 1.87

Q: With FHALVREVRRKEKEAVLAMEKKSK [I8V] as the variant, how does the protein stability index read?
A: 1.78

Q: With FHALVREWRRKEKEAVLAMEKKSK [I8W] as the variant, how does the protein stability index read?
A: 2.35

Q: With FHALVREYRRKEKEAVLAMEKKSK [I8Y] as the variant, how does the protein stability index read?
A: 2.01

Q: Which protein stability index does the source give for FHALVREIARKEKEAVLAMEKKSK [R9A] here?
A: 1.82

Q: With FHALVREICRKEKEAVLAMEKKSK [R9C] as the variant, how does the protein stability index read?
A: 1.72

Q: With FHALVREIDRKEKEAVLAMEKKSK [R9D] as the variant, how does the protein stability index read?
A: 2.48

Q: For FHALVREIERKEKEAVLAMEKKSK [R9E], which protein stability index is on record?
A: 2.06

Q: With FHALVREIGRKEKEAVLAMEKKSK [R9G] as the variant, how does the protein stability index read?
A: 2.27

Q: With FHALVREIHRKEKEAVLAMEKKSK [R9H] as the variant, how does the protein stability index read?
A: 1.54

Q: With FHALVREIIRKEKEAVLAMEKKSK [R9I] as the variant, how does the protein stability index read?
A: 2

Q: Which protein stability index does the source give for FHALVREIKRKEKEAVLAMEKKSK [R9K] here?
A: 1.77

Q: Which protein stability index does the source give for FHALVREILRKEKEAVLAMEKKSK [R9L] here?
A: 2.12

Q: For FHALVREIMRKEKEAVLAMEKKSK [R9M], which protein stability index is on record?
A: 2.03

Q: With FHALVREINRKEKEAVLAMEKKSK [R9N] as the variant, how does the protein stability index read?
A: 2.23

Q: With FHALVREIPRKEKEAVLAMEKKSK [R9P] as the variant, how does the protein stability index read?
A: 2.8

Q: Which protein stability index does the source give for FHALVREIQRKEKEAVLAMEKKSK [R9Q] here?
A: 2.5

Q: With FHALVREISRKEKEAVLAMEKKSK [R9S] as the variant, how does the protein stability index read?
A: 1.85

Q: For FHALVREITRKEKEAVLAMEKKSK [R9T], which protein stability index is on record?
A: 1.64

Q: For FHALVREIVRKEKEAVLAMEKKSK [R9V], which protein stability index is on record?
A: 2.42

Q: Which protein stability index does the source give for FHALVREIWRKEKEAVLAMEKKSK [R9W] here?
A: 2.02

Q: Which protein stability index does the source give for FHALVREIYRKEKEAVLAMEKKSK [R9Y] here?
A: 2.09

Q: With FHALVREIRAKEKEAVLAMEKKSK [R10A] as the variant, how does the protein stability index read?
A: 3.88

Q: With FHALVREIRCKEKEAVLAMEKKSK [R10C] as the variant, how does the protein stability index read?
A: 2.7

Q: With FHALVREIRDKEKEAVLAMEKKSK [R10D] as the variant, how does the protein stability index read?
A: 1.94

Q: With FHALVREIREKEKEAVLAMEKKSK [R10E] as the variant, how does the protein stability index read?
A: 1.7

Q: For FHALVREIRFKEKEAVLAMEKKSK [R10F], which protein stability index is on record?
A: 4.17

Q: For FHALVREIRGKEKEAVLAMEKKSK [R10G], which protein stability index is on record?
A: 2.06

Q: With FHALVREIRHKEKEAVLAMEKKSK [R10H] as the variant, how does the protein stability index read?
A: 2.18

Q: Which protein stability index does the source give for FHALVREIRIKEKEAVLAMEKKSK [R10I] here?
A: 2.61

Q: For FHALVREIRKKEKEAVLAMEKKSK [R10K], which protein stability index is on record?
A: 1.33

Q: For FHALVREIRLKEKEAVLAMEKKSK [R10L], which protein stability index is on record?
A: 1.55

Q: For FHALVREIRMKEKEAVLAMEKKSK [R10M], which protein stability index is on record?
A: 2.19

Q: With FHALVREIRNKEKEAVLAMEKKSK [R10N] as the variant, how does the protein stability index read?
A: 2.34

Q: With FHALVREIRPKEKEAVLAMEKKSK [R10P] as the variant, how does the protein stability index read?
A: 2.31

Q: Which protein stability index does the source give for FHALVREIRQKEKEAVLAMEKKSK [R10Q] here?
A: 1.36

Q: For FHALVREIRSKEKEAVLAMEKKSK [R10S], which protein stability index is on record?
A: 1.59

Q: Which protein stability index does the source give for FHALVREIRTKEKEAVLAMEKKSK [R10T] here?
A: 2.09

Q: For FHALVREIRVKEKEAVLAMEKKSK [R10V], which protein stability index is on record?
A: 2.29

Q: With FHALVREIRWKEKEAVLAMEKKSK [R10W] as the variant, how does the protein stability index read?
A: 1.75

Q: For FHALVREIRYKEKEAVLAMEKKSK [R10Y], which protein stability index is on record?
A: 1.82

Q: Which protein stability index does the source give for FHALVREIRRAEKEAVLAMEKKSK [K11A] here?
A: 1.47

Q: For FHALVREIRRCEKEAVLAMEKKSK [K11C], which protein stability index is on record?
A: 2.28

Q: With FHALVREIRRDEKEAVLAMEKKSK [K11D] as the variant, how does the protein stability index read?
A: 1.39

Q: Which protein stability index does the source give for FHALVREIRREEKEAVLAMEKKSK [K11E] here?
A: 2.07

Q: With FHALVREIRRFEKEAVLAMEKKSK [K11F] as the variant, how does the protein stability index read?
A: 1.95

Q: Which protein stability index does the source give for FHALVREIRRGEKEAVLAMEKKSK [K11G] here?
A: 2

Q: With FHALVREIRRHEKEAVLAMEKKSK [K11H] as the variant, how does the protein stability index read?
A: 2.05

Q: With FHALVREIRRIEKEAVLAMEKKSK [K11I] as the variant, how does the protein stability index read?
A: 1.55

Q: For FHALVREIRRLEKEAVLAMEKKSK [K11L], which protein stability index is on record?
A: 2.16

Q: For FHALVREIRRMEKEAVLAMEKKSK [K11M], which protein stability index is on record?
A: 2.69

Q: Which protein stability index does the source give for FHALVREIRRNEKEAVLAMEKKSK [K11N] here?
A: 1.45

Q: For FHALVREIRRPEKEAVLAMEKKSK [K11P], which protein stability index is on record?
A: 2.46

Q: Which protein stability index does the source give for FHALVREIRRQEKEAVLAMEKKSK [K11Q] here?
A: 2.47

Q: With FHALVREIRRREKEAVLAMEKKSK [K11R] as the variant, how does the protein stability index read?
A: 1.55

Q: With FHALVREIRRSEKEAVLAMEKKSK [K11S] as the variant, how does the protein stability index read?
A: 1.58

Q: For FHALVREIRRTEKEAVLAMEKKSK [K11T], which protein stability index is on record?
A: 2.19

Q: For FHALVREIRRVEKEAVLAMEKKSK [K11V], which protein stability index is on record?
A: 1.99

Q: For FHALVREIRRWEKEAVLAMEKKSK [K11W], which protein stability index is on record?
A: 2.11

Q: Which protein stability index does the source give for FHALVREIRRYEKEAVLAMEKKSK [K11Y] here?
A: 1.64

Q: For FHALVREIRRKAKEAVLAMEKKSK [E12A], which protein stability index is on record?
A: 3.79
